Data taken from patent US20240317855A1 (EUREKA THERAPEUTICS, published 2024).

Target: GPC3 (glypican-3) on HEPG2 human liver cancer cells (human, UniProt P51654 25-580)
Test: cell-based or functional assay

GPC3 (glypican-3) on HEPG2 human liver cancer cells, sequence (P51654 25-580): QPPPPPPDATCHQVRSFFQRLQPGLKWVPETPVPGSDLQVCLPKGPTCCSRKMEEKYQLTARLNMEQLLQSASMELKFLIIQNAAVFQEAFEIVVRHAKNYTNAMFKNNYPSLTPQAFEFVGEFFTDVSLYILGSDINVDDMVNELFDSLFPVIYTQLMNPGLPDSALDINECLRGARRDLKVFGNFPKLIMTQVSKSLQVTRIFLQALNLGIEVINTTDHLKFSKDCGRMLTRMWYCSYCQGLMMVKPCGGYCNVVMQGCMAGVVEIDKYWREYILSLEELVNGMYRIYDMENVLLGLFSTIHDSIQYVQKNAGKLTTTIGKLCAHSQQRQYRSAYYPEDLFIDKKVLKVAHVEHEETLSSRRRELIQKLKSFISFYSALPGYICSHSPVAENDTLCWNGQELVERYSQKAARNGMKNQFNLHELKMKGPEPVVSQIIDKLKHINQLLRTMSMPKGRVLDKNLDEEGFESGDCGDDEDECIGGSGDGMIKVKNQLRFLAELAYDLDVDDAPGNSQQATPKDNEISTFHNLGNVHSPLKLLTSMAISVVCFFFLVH

B1: anti-GPC3 CSR (chimeric co-stimulatory receptor: anti-GPC3 scFv fused to CD28 transmembrane and intracellular signaling sequences) (other)
chain: QSVLTQPPSVSAAPGQRVTISCSGTRSNIGSDYVSWYQHLPGTAPKLLVYGDNLRPSGIPDRFSASKSGTSATLGITGLQTGDEADYYCGTWDYTLNGVVFGGGTKLTVLGSRGGGGSGGGGSGGGGSLEMAQVQLVESGGGLVQPGGSLRLSCAASGFTFSSYAMSWVRQAPGKGLEWVSVIYSGGSSTYYADSVKGRFTISRDNSKNTLYLQMNSLRAEDTAVYYCARTSYLNHGDYWGQGTLVTVSSAAAIEVMYPPPYLDNEKSNGTIIHVKGKHLCPSPLFPGPSKPFWVLVVVGGVLACYSLLVTVAFIIFWVRSKRSRLLHSDYMNMTPRRPGPTRKHYQPYAPPRDFAAYRS
- specific killing of HEPG2 (AFP+/GPC3+) target cells by T cells expressing anti-AFP caTCR-1 (caTCR-1-0 or caTCR-1-TM5) and the anti-GPC3 CSR; Cytox 96 LDH assay, E:T 2.5:1, 16 hr: 55 to 65%
